Results on five molecules are retold here after PMC9351452 (Proceedings of the National Academy of Sciences of the …, 2022).

Assay [1] concerns the target T1, DCCP:DCCP-R complex (Carboxydothermus hydrogenoformans, UniProt Q3AET8).
T1 sequence (Q3AET8 1-245): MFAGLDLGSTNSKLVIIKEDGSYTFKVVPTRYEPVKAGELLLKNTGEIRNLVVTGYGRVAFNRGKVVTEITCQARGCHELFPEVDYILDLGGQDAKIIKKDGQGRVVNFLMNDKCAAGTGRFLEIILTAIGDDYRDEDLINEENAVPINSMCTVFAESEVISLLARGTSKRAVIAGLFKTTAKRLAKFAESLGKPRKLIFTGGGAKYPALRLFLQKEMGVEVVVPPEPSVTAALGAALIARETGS
T1 sequence (Q3AET9 1-421 partner): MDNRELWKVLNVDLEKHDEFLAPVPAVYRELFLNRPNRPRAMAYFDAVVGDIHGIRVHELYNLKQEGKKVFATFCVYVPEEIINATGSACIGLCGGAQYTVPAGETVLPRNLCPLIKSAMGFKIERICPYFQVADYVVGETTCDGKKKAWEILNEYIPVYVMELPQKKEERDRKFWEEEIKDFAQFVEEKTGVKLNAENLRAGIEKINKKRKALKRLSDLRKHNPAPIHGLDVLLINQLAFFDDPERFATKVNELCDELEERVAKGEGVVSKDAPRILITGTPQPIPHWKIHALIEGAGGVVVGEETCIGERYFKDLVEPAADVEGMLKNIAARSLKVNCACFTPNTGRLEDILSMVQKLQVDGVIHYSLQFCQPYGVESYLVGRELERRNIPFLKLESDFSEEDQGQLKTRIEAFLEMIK
Description: isothermal titration calorimetry. The assay is classed as binding. The note with it: Mg2+; 50 mM Tris-HCl pH 8.0, 25 °C, anoxic; DCCP present in cell; reduced DCCP-R. Background: In ITC the heat of successive injections is recorded.

Assay [2] deals with T2, DCCP-R (double-cubane cluster protein reductase) (Carboxydothermus hydrogenoformans, UniProt Q3AET8).
T2 sequence (Q3AET8 1-245): T1 sequence (Q3AET8 1-245)
Description: isothermal titration calorimetry. The format is binding.

Assay [3] concerns the target double-cubane cluster protein (DCCP). Description: SEC. Background: In gel filtration, larger molecules generally elute earlier.
Assay [4] shares this target. Nature of the assay: SEC. The source holds these as a separate data set.
Assay [5] has the same target. Description: ITC.
The target is the same in assay [6]. Description: ITC. This is another data set of the same source.
In assay [7] the target is double-cubane cluster protein reductase (DCCP-R). Description: SEC.
Assay [8] has as its target double-cubane cluster protein reductase (DCCP-R) from Carboxydothermus hydrogenoformans (Carboxydothermus hydrogenoformans). Nature of the assay: SEC.

Where two headings read alike, the source gives them in different places.

The Kd is the constant that tells how readily two partners part at equilibrium. Low values mean higher affinity, high ones lower affinity. Regarding `Nc1ncnc2c1ncn2[C@@H]1O[C@H](COP(=O)(O)OP(=O)(O)NP(=O)(O)O)[C@@H](O)[C@H]1O` [MgADPNP, 5′-adenylyl β, γ-imidodiphosphate], the Kd in assay [1] was 7.1 ± 1.1 µM; in assay [2] it was 15 ± 0.5 µM.

As for `Nc1ncnc2c1ncn2[C@@H]1O[C@H](COP(=O)(O)OP(=O)(O)O)[C@@H](O)[C@H]1O` [MgADP], in assay [2], the Kd was determined as 42 ± 7 µM.

As usually defined, the stoichiometry N is the number of molecules, sites or subunits per partner or assembly. As to “double-cubane cluster protein (DCCP) (enzyme)”, the stoichiometry N in assay [3] and in assay [4] was 2 in each case.

With “double-cubane cluster protein reductase (DCCP-R) (enzyme)”, the dH in assay [5] is 5.9 kcal/mol; in assay [6], -31.5 kcal/mol. Also, the stoichiometry N in assay [7] worked out at 2.

Molecule “double-cubane cluster protein reductase (DCCP-R) from Carboxydothermus hydrogenoformans (enzyme)” had a stoichiometry N in assay [8] of 2.
